According to patent US20120177704A1:

Biological target: human interleukin 12 (human) (UniProt P29459)
Test: cell-based or functional assay

Sequence of UniProt P29459 (P29459 23-219 limits assumed, chain 1 of 2): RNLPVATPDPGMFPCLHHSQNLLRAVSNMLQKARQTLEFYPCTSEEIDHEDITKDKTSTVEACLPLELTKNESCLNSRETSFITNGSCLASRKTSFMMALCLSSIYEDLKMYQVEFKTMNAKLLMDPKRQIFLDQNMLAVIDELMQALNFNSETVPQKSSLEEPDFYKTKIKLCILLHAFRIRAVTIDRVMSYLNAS
Sequence of UniProt P29459 (P29460 23-328 limits assumed, chain 2 of 2, further chain): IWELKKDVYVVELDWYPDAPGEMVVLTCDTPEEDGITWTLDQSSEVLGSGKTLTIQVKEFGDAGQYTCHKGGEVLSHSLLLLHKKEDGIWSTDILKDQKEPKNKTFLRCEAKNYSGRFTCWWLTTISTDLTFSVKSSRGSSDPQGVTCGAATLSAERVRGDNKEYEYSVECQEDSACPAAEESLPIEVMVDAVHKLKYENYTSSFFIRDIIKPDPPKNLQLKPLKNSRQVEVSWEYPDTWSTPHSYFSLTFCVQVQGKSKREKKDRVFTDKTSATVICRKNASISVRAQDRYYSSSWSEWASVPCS

relative biological activity (mean IC50 of reference standard / IC50 of sample x 100%); inhibition of IL-12-stimulated IFN-γ production of NK-92 cells, IFN-γ measured by ELISA: 98%
Substance: monoclonal antibody ABT-874
